Experimental data: the supplement of paper PMC10567573

B1: GMCL1 (parent)
chain: FCYCAGSHKRKRSSGSFCYCHPDS
B2: DVL3 (parent)
chain: SDVVDWLYHNVEGFTDRREARKYA

Variants of: B1
Assay: protein stability index of a GFP-peptide fusion (GPS, HEK-293T) (PSI 1-6); higher = more stable
Details: c terminus: a fixed tail appended
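Note: lentivirally expressed fusions sorted by FACS into six bins by GFP to DsRed ratio, PSI derived from sequencing read proportions per bin multiplied by bin number.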

Protein stability index: each site, then its substitutions
D23: N 1.92, E 2.13, Q 2.34, V 1.44, A 1.35, H 1.88, Y 2.06, C 1.28, W 2.16, P 2.86, L 1.98, I 1.83, F 2.06, M 2.39, G 2.27, K 2.42, R 1.99, S 1.94, T 3.04
P22: T 1.32, L 1.63, R 2.1, Y 2.02, W 2.27, N 2.69, M 1.85, S 2.53, K 2.09, Q 1.91, V 1.96
S24: Q 2.9, R 2.28, T 2.02, L 1.91, F 1.61, K 2.44, W 1.38, Y 1.84, G 2.46, N 2.12, H 2.09, V 2.12, A 1.94, C 1.51, I 2.03, M 1.78, E 2.51, D 1.87, P 1.88

Variants of: B2
Assay: as above
Details: c terminus: a fixed tail appended

Protein stability index, by site and new letter:
V4: H 3.52, D 3.78, M 3.76, L 2.98, K 3.46, P 3.81, E 4.08, R 3.84, W 2.44, T 3.6, Q 3.67, A 3.09, G 3.84, F 3.53, S 3.68, I 2.56, Y 3.21, C 2.77, N 3.89
W6: K 4.38, G 4.32, I 4.13, F 2.9, T 4.54, Y 3.6, Q 4.22, D 4.75, P 4.86, R 4.79, V 4.58, M 3.82, S 4.76, H 4.21, C 3.81, E 4.97, A 4.58, L 4.35, N 4.95
R17: F 2.16, C 3.43, D 3.56, A 2.81, E 3.82
H9: D 3.66, R 2.8, V 2.16, Y 3.21, I 2.09, G 3.32, K 2.67, T 2.67, F 2.14, N 3.83, A 2.37, S 2.94, W 2.42, Q 3.11, P 4, C 2.13, L 2.55, M 2.79
Y8: M 2.74, G 4.25, N 3.87, C 3.79, W 2.31, I 2.39, P 4.51, S 3.56, T 3.63, Q 3.81, E 4.2, V 2.93, D 4.61, L 2.27, K 3.83
D16: L 2.07, Y 2.06, M 2.29, C 1.92, F 2.94, H 2.37, W 2.12, Q 3.19, I 3.24, E 3, R 2.21, A 2.45, V 2.24, K 2.29, T 2.66, P 3.74
G13: S 2.96, T 2.93, K 2.95, C 2.68, W 2.52, E 3.3, A 2.71, I 2.28, D 3.66, F 1.61, P 3.2, M 2.71, H 2.56, R 3.93, Y 2.1, L 2.28, Q 2.33, N 2.66, V 2.14
S1: T 3.1, D 3.92, L 3.51, I 2, Q 2.9, F 2.23, C 2.71, H 3.27, N 3.42, G 3.78, E 3.76, R 2.52, V 3.5, K 2, P 2.15
L7: Y 3.28, W 3.58, M 3.44, S 4.75, Q 4.31, G 4.25, C 3.65, P 3.63, D 4.58, R 2.65, H 4.68, E 5.12, A 3.54, K 4.64, F 2.12, V 3.5, T 4.05, I 3.01
T15: W 2.74, V 2.85, K 2.56, Y 3.24, A 2.32, F 2.15, M 3.02, D 3.04, C 2.67, I 2.83, N 3.13, P 2.92, G 2.7, L 2.91, R 2.91, H 3.23, Q 3.21
D5: C 1.84, W 1.7, P 3.71, N 2.07, M 2.87, A 1.98, L 1.41, Y 2.53, H 2.44, I 1.82, K 2.36, T 2.75, F 2.21, G 3.06, E 3.6, Q 3.23, V 1.19, S 2.5
D2: T 2.9, L 2.12, I 2.46, K 2.73, A 1.85, F 1.9, C 2.16, V 2.72, N 3.36, E 3.01, M 2.09, S 2.74, H 2.91, R 2.23, Y 2.26, W 1.64, G 2.89, P 2.62
F14: E 4.77, G 3.96, H 3.27, L 3.11, N 3.61, R 2.56, W 3.18, Q 3.86, P 3.61, T 3.87, K 4.76, C 3.04, I 3.97, D 3.95, S 4.19
E12: K 3.54, W 2.04, C 2.18, L 2.08, I 1.94, T 2.63, Q 2.98, S 2.83, R 2.78, N 2.5, G 2.37, Y 1.58, F 1.98, A 3.49, V 1.28, P 2.33, D 2.96, H 2.88, M 2.01
V11: G 4.04, L 2.03, Q 3.36, D 3.62, E 3.53, S 2.45, I 2.61, T 2.67, H 3.6, C 3.07, K 3.85, N 3.83, M 2.58, Y 3.48, W 2.36, A 2.8, F 2.46, P 4.08, R 3.1
N10: S 3.01, Y 2.01, F 1.75, E 3.69, I 2.25, C 2.1, G 3.03, Q 2.91, W 2.63, A 2.1, L 2, H 2.7, T 3.33, M 1.94, R 2.6, V 2.58, D 4.09, K 2.34
V3: Y 3, A 3.98, Q 4.64, I 2.98, P 4.24, L 3.15, W 2.04, D 4.59, C 3.69, T 4.13, R 3.95, N 4.22, E 5.17, F 2.07, S 3.44, H 3.39, M 3.85
